Residue numbers refer to the chain shown, from its start. Names may count otherwise.
B1: Bdigene 275: Acetyl-CoA acetyltransferase from Dyadobacter fermentans, Uniprot C6VTZ3, SEQ ID NO: 8 (protein)
chain: MNAYIVAGYRTAVGKAPRGGFRFTRPDDLGAAVIKHLLEKTPQLDPTRVDDVIVGNAVPEAEQGMQMGRYVALLSLPKNVSGITINRYCGSGVEAIAMASAKIHAGMAECIIAGGTESMSLVPTMGWKTALNYEIAHTNPDYYLSMGLTAEQVAQDFKISREAQDNFSFQSHQKALRAQKEGWFAEGIVPVTVKETYFDQASGKKKTKETVISQDEGPRADTTLEALNKLKPVFAAGGSVTAGNSSQTSDGAAFVLVMSERLVNELGLKPIARMMSYATAGVDPRVMGIGPVAAVPLALKQAGLQLKDIQQVELNEAFAAQSLAVIQELGIDPEIVNPNGGAIALGHALGSTGARLSVQLFNEMKRRDQKYGMVTACVGGGQGVAGIYERLN
modifications: Dyadobacter fermentans
B2: Bdigene 274: Acetate CoA-transferase YdiF from Megasphaera elsdenii DSM 20460, Uniprot G0VND6, SEQ ID NO: 7 (protein, listed as Megasphaera elsdenii)
chain: MRKVEIITAEQAAQLVKDNDTITSIGFVSSAHPEALTKALEKRFLDTNTPQNLTYIYAGSQGKRDGRAAEHLAHTGLLKRAIIGHWQTVPAIGKLAVENKIEAYNFSQGTLVHWFRALAGHKLGVFTDIGLETFLDPRQLGGKLNDVTKEDLVKLIEVDGHEQLFYPTFPVNVAFLRGTYADESGNITMDEEIGPFESTSVAQAVHNCGGKVVVQVKDVVAHGSLDPRMVKIPGIYVDYVVVAAPEDHQQTYDCEYDPSLSGEHRAPEGATDAALPMSAKKIIGRRGALELTENAVVNLGVGAPEYVASVAGEEGIADTITLTVEGGAIGGVPQGGARFGSSRNADAIIDHTYQFDFYDGGGLDIAYLGLAQCDGSGNINVSKFGTNVAGCGGFPNISQQTPNVYFCGTFTAGGLKIAVEDGKVKILQEGKAKKFIKAVDQITFNGSYAARNGKHVLYITERCVFELTKEGLKLIEVAPGIDIEKDILAHMDFKPIIDNPKLMDARLFQDGPMGLKK
B3: Bdigene 273: Acetate CoA-transferase YdiF from Firmicutes bacterium CAG, Uniprot R5ADR5, SEQ ID NO: 6 (protein)
chain: MARQVKVITAAEAAALIKNGDTVTTSGFVASAIPEALDRAVEERFLATGEPRDITYVYCGSQGNKDGRGAEHFAHEGLLKRYIAGHWATVPALQKMALENKMEAYNVSQGALCHLFRDIAAHRPGCFTKVGLGTFIDPRNGGGKVNDVTKEDIIELVNIKGQDYLFYPAFPINVALIRGTYADESGNISFEKEVSPLEGTSVCQAVKNSGGIVVVQVEKLVKAGTLDPRLVKVPGIYVDYVVVADPKDHQQTLDCDYDPALSGEMRNPDVAPEPLPLSAKKIIGRRGAVELEKDVAVNLGVGAPEYVASVANEEGIGDFMTLTVEGGAVGGVPAGGIRFGSAYNADALLDQGYQFDFYDGGGLDLCYLGLAECDPHGSINVSRFGPRIAGCGGFINITQCTPKVFFCGTFTAGGLKVKVEDGKVVIAQEGKNKKFVKSVEQVTFNGDIANKNGQHVMYITERCVFVLKEDGLHLTEIAPGIDLQTQILDQMEFEPIIDRNADGSITLMDAKLFADGLMGLKEMKEGK
B4: Bdigene 0343: E-cinnamoyl-CoA: R-phenyilactate CoA transferase from Clostridium sporogenes, Uniprot Q93AM1 (protein, UniProt Q93AM1 1-412, looked up)
Cinnamoyl-CoA:phenyllactate …: MENNTNMFSGVKVIELANFIAAPAAGRFFADGGAEVIKIESPAGDPLRYTAPSEGRPLSQEENTTYDLENANKKAIVLNLKSEKGKKILHEMLAEADILLTNWRTKALVKQGLDYETLKEKYPKLVFAQITGYGEKGPDKDLPGFDYTAFFARGGVSGTLYEKGTVPPNVVPGLGDHQAGMFLAAGMAGALYKAKTTGQGDKVTVSLMHSAMYGLGIMIQAAQYKDHGLVYPINRNETPNPFIVSYKSKDDYFVQVCMPPYDVFYDRFMTALGREDLVGDERYNKIENLKDGRAKEVYSIIEQQMVTKTKDEWDNIFRDADIPFAIAQTWEDLLEDEQAWANDYLYKMKYPTGNERALVRLPVFFKEAGLPEYNQSPQIAENTVEVLKEMGYTEQEIEELEKDKDIMVRKEK
B5: E324L: YdiF mutant, leucine for the glutamate in position 324, SEQ ID NO: 4 (protein)
chain: MGHHHHHHSSGLVPRGSMRKVPIITADEAAKLIKDGDTVTTSGFVGNAIPEALDRAVEKRFLETGEPKNITYVYCGSQGNRDGRGAEHFAHEGLLKRYIAGHWATVPALGKMAMENKMEAYNVSQGALCHLFRDIASHKPGVFTKVGIGTFIDPRNGGGKVNDITKEDIVELVEIKGQEYLFYPAFPIHVALIRGTYADESGNITFEKEVAPLEGTSVCQAVKNSGGIVVVQVERVVKAGTLDPRHVKVPGIYVDYVVVADPEDHQQSLDCEYDPALSGEHRRPEVVGEPLPLSAKKVIGRRGAIELEKDVAVNLGVGAPEYVASVADEEGIVDFMTLTALSGAIGGVPAGGVRFGASYNADALIDQGYQFDYYDGGGLDLCYLGLAECDEKGNINVSRFGPRIAGCGGFINITQNTPKVFFCGTFTAGGLKVKIEDGKVIIVQEGKQKKFLKAVEQITFNGDVALANKQQVTYITERCVFLLKEDGLHLSEIAPGIDLQTQILDVMDFAPIIDRDANGQIKLMDAALFAEGLMGLKEMKS
B6: S60A: YdiF (SEQ ID NO: 1) mutant, alanine for serine at position 60, N-terminal His-tag (protein, listed as Clostridium propionicum)
chain: MRKVPIITADEAAKLIKDGDTVTTSGFVGNAIPEALDRAVEKRFLETGEPKNITYVYCGAQGNRDGRGAEHFAHEGLLKRYIAGHWATVPALGKMAMENKMEAYNVSQGALCHLFRDIASHKPGVFTKVGIGTFIDPRNGGGKVNDITKEDIVELVEIKGQEYLFYPAFPIHVALIRGTYADESGNITFEKEVAPLEGTSVCQAVKNSGGIVVVQVERVVKAGTLDPRHVKVPGIYVDYVVVADPEDHQQSLDCEYDPALSGEHRRPEVVGEPLPLSAKKVIGRRGAIELEKDVAVNLGVGAPEYVASVADEEGIVDFMTLTAESGAIGGVPAGGVRFGASYNADALIDQGYQFDYYDGGGLDLCYLGLAECDEKGNINVSRFGPRIAGCGGFINITQNTPKVFFCGTFTAGGLKVKIEDGKVIIVQEGKQKKFLKAVEQITFNGDVALANKQQVTYITERCVFLLKEDGLHLSEIAPGIDLQTQILDVMDFAPIIDRDANGQIKLMDAALFAEGLMGLKEMKS
modifications: N-terminal His-tag
B7: C390A: YdiF (SEQ ID NO: 1) mutant, alanine for cysteine at position 390, N-terminal His-tag (protein, listed as Clostridium propionicum)
chain: B6 chain with A60S, C390A
modifications: N-terminal His-tag
B8: C112A: YdiF (SEQ ID NO: 1) mutant, alanine for cysteine at position 112, N-terminal His-tag (protein, listed as Clostridium propionicum)
chain: B6 chain with A60S, C112A
modifications: N-terminal His-tag
B9: Bdigene 271: Acetate CoA-transferase YdiF from Salmonella enterica subsp. houtenaeserovar, Uniprot V1HBS2, SEQ ID NO: 9 (protein, listed as Salmonella enterica)
chain: MLSTKQFTAQQAVELIQDGDKVILGGFIGAVVPEAIEKAIEDKFLAEGHPCNLGLIFAAGQGDAKEKAINRLAHEGLVSSAIGGHWGLIPGLQRLASEGKITGYNLPQGVICHLLRDSAAGKAGTLTHVGLGTFVDPRIEGGKINAKTTEDIVTYININDVENLLYKKLDANIAILRGTTADTHGNITMEDECLILENLAAAQLVHNQGGKVIVQVKRIVPKGSLDPLQVKIPGIFVDALVVADGEAHMQTFAEAMNENYVGRGEKGIRERKIRPLDVKKVIARRAAMELKKNAIVNYGIGIPEIIAQVADEENVTQELIATVEPGAIGGSPAGGLSFGASAFPEAIITQDQMFDFYDGGGLDQAFLGLAETDAKGDLNVSKFGVKIAGCGGFINITQNAKHVFFCGSFTAGDSDIIVEEGKLIIRRDGQIKKFIKHVQQITFSSDTARKNHKPVLYITERAVFRLAAETIELIEIAPGIDLQHDILDKMEFRPTISPALKEMDKRIFSEALMSLSLK

Assay: Solubility of the expressed protein (Table 3)
Conditions: protein expressed in E. coli
Protocol: From a fresh LB plate containing the desired clone transformant, one colony (or small scratch) was picked to inoculate 25 mL of LB supplemented with the relevant antibiotic and the pre-culture was incubated overnight at 37° C., 230 rpm. The following morning, the TB auto-induced medium (Merck/Code product: 71491-5) was prepared by mixing 60 g TB/L supplemented with 10 mL Glycerol/L of TB and microwaved during 3+2 minutes at full power. The TB was cooled down before use and splitting it in sterile flasks. Then, the pre-culture incubated overnight in LB was centrifuged and the supernatant discarded. The obtained pellet was resuspended with 5 mL of freshly prepared TB medium and used to inoculate 500 mL of TB dispensed in sterile flasks and supplemented with the appropriate antibiotic. The inoculated medium was incubated at 28° C. for at least 20 h, 230 rpm.
The culture was centrifuged at least at 3000 g/20 min/4° C. and the pellet used immediately or stored at −80′C.
The pellets (fresh or thawed) were resuspended in 10 to 20 mL of Buffer A (50 mM Hepes+150 mM NaCl+40 mM Imidazole+5% Glycerol−pH 7.5). The resuspended cells were then sonicated in ice for, 5 min at 37% Amplitude with 5″ ON and 15″ OFF sonication pulse. The sonicated cells were centrifuged for at least 20 min at 15500 g and 4° C. The supernatant containing the soluble fraction of proteins was recovered, filtered using 0.45 or 0.2 um filters, and used for His-trap protein purification.

Molecule | Solubility
B1 | ✓
B2 | ✓
B3 | ✓
B4 | ✓

Assay: Activity of YdiF mutant enzymes (evaluation of potential active sites)
Assay type: biochemical
Conditions: studied as in Example 2
Protocol: YdiF mutants were prepared using the relevant primers to introduce the mutated bases via the Quick change lightning kit (Agilent, code product: 210518-5), and cloned into E. coli. In addition, all the proteins used in this experiment have the following extra amino acids added in the N-terminal extremity of the original protein sequence (SEQ ID NO:1): […]. Those additional amino acids correspond to: two amino acids (M and G), a 6×His-tag followed by a 3 amino acids linker (SSG), and a specific proteolytic cleavage site (thrombin site, underlined) (SEQ ID NO: 22). All the sequences were confirmed by DNA sequencing.
(§1) Acetyl-CoA was used at a final concentration of 1.5 mM and 30 mM of the substrate being studied (e.g. carboxylic acid salts, such as sodium acrylate) or 1.5 mM of propionyl-CoA in 50 mM Hepes buffer (pH 7.5). The reaction was started by addition of 0.5 mg/mL of YdiF pure protein or mutants to a final volume of 250 μL and incubated for 1 to 10 hours at 30° C.
(§2) All samples were prepared in triplicate and spun down at 15000 g for 20 min at 4° C. Detection of the thiol product (e.g. acryloyl-CoA) synthesized from CoA-transferase activity and the keto-thiol product (e.g. 3-oxopent-4-enoyl-CoA) due to putative thiolase activity of YdiF (or homologues) was carried out by Liquid Chromatography coupled to a qTof-Mass spectrometry (in positive mode), using a C18 column (Zorbax Eclipse C18, 2.1×50 mm, 1.8μ, Agilent, code product: 959757-902) and a gradient of 10 mM ammonium acetate and acetonitrile as mobile phase.
Mutations were introduced as described in Example 1 at the following positions previously found to be potentially involved in the active site of other β-ketothiolases: C258A, S60A, C112A, S38A, C390A. Activity of the mutant enzymes was studied as described in Example 2.
Mutations were introduced as described in Example 1 to replace the glutamate in position 324 of YdiF (see Selmer et al., 2002) with glycine (mutant E324G) or leucine (E324L). Activity of the mutant enzymes was studied as described in Example 2.

Molecule | transferase activity | thiolase activity
B5 | only partially abolished | –
B6 | None of the mutations abolished | None of the mutations abolished
B7 | None of the mutations abolished | None of the mutations abolished
B8 | None of the mutations abolished | None of the mutations abolished

Assay: Screen for dual transferase/ketothiolase activity with acetyl-CoA and sodium acrylate, LC-MS detection
Assay type: biochemical
Conditions: 3-oxopent-4-enoyl-CoA via thiolase activity
Protocol: as §1
Two controls were made from similar mixture except that the enzymes were inactivated by heating-up at 95° C. for 20 min or they were replaced by Buffer C.
as §2
YdiF from Clostridium propionicum belongs to the enzymatic class EC2.8.3.8. Other members of this enzyme class with similar structural features to YdiF, as well as proteins with a CoA-transferase activity from close-by enzymatic classes, were screened for dual transferase/ketothiolase activity as described in Example 2. Acetyl-CoA and sodium acrylate were provided as substrates. LC-MS was used to detect the thiol-product (propenoyl-CoA) synthesized via the transferase activity and the ketothiol-product (3-oxopent-4-enoyl-CoA) synthesized via the thiolase activity, as described in Example 2.

Molecule | ketothiol-product
B2 | ✓
B3 | ✓
B9 | ✓

Same assay, conditions: propenoyl-CoA via transferase activity

Molecule | thiol-product
B2 | ✓
B3 | ✓
B9 | ✓

— patent US10570379B2, “Polypeptides for carbon-carbon bond formation and uses thereof” (INVISTA North America S.à.r.l., priority 2015, dated 2020)
